Where two headings read alike, the source gives them in different places.
Key:
M.K. polB DNA polymerase = M.K. polB DNA polymerase (Methanopyrus kandleri, UniProt Q8TWJ5); assay: Effects of media components on M.K. polB DNA polymerase activity (primer extension); type: biochemical
Experimental: (§1) DNA polymerase reaction mixtures (15-20 μl) contained dATP, dTTP, dCTP, and dGTP (1 mM each), 4.5 mM MgCl2, detergents Tween 20 and Nonidet P-40 (0.2% each), fixed concentrations of PTJ—duplex, other additions, as indicated, and appropriate amounts of polB in 30 mM Tris-HCl buffer pH 8.0 (25° C.). The background reaction mixtures contained all components except DNA polymerases. Primer extensions were carried out for a preset time at 75° C. in PTC-150 Minicycler (MJ Research, Inc.; Waltham, Mass.). 5 μl samples were removed and chilled to 4° C. followed by immediate addition of 20 μl of 20 mM EDTA. The samples were desalted by centrifugation through Sephadex G-50 spun columns, diluted, and analyzed on a ABI Prism 377 DNA sequencer (Applied BioSystems; Foster City, Calif.). For each sample, raw data were extracted from the sequencer trace files with the program Chromas 1.5 (Technelysium Pty Ltd., Australia), and the fluorescent signals were analyzed by our nonlinear regression data analysis programs written in Fortran. The programs applied Powell algorithms to approximate the signals by a number of Gaussian peaks and calculate integral fluorescent intensities for each product peak. The total amount of fluorescent products for each time of incubation was determined, and the initial rates of extension were calculated.
(§2) The next two tables (Table 4 and 5) display effects of various media components on M.K. polB DNA polymerase activity. Initial rates of primer extension reaction were measured as described by Pavlov et al., 2002.

[1] = system: Mka PolB 3'-5' exonuclease activity; assay: Effect of salts on 3'-5' exonuclease activity of Mka PolB; type: biochemical, Methanopyrus kandleri
Experimental: (§3) A 3′→5′ exonuclease activity of polB polymerase was measured at the same conditions as in the primer extension assay, except omitting dideoxynucleotides. A fluorescent primer:
Conclusions: • 1. KGlu inhibits the 3′-5′ exonuclease activity of Mka PolB, while NaCl stimulates it. • 2. KGlu, diphosphoglycerate, and Mka PCNA (see below) increase the polymerase activity of PolB. • 3.

[2] = system: DNA duplex of FIG. 16 (PTJ); assay: Initial rates of primer extension reactions in salts (inhibition of polymerases and chimeras by NaCl, KCl, K-Glu); type: biochemical
Experimental: The polymerase activities of the four chimeras were tested by measuring initial rates of primer extension reactions. The reactions were carried out at low concentrations of substrate, when the initial rates were proportional both to total protein and PTJ concentrations. When [PTJ] is much less than Kmapp, the initial rate is determined as in Equation 1: v1=kapp/Kmapp*[Et]*[PTJ]1 Eq. 1 • where Kmapp and kapp are apparent Michaelis and catalytic constants, respectively.
The concentrations of sodium chloride (NaCl), potassium chloride (KCl) and potassium glutamate (K-Glu) were varied to assess inhibition of the Stoffel fragment and KlenTaq, and the four chimeras by salts, and to estimate the effects of the HhH domains.
Experimental values of initial polymerization rates were analyzed by nonlinear regression analysis using Equation 2: [formula] where v and v0 are initial primer extension rates with and without salt, respectively, Ki is the apparent inhibition constant; and α is the cooperativity parameter.
In Table 2, to take into account the activation of Pfu polymerase and the PfuC2 hybrid by KGlu (data entries marked with an asterisk (*), the experimental values of initial polymerization rates were analyzed by nonlinear regression using the Equation 3: [formula]
where v and v0 are initial primer extension rates with and without salt, respectively; Ki is an apparent inhibition constant, α is a parameter of cooperativity, β and γ are parameters of activation. Since γ≅2, it is likely that two ions of Glu^− bind to the Pfu polymerase catalytic domain without inhibiting the polymerase activity.

polB DNA polymerase = assay: Thermostability of polB DNA polymerase in various media; type: biochemical, Methanopyrus kandleri; conditions: 1 M Betaine, potassium glutamate, 100° C.
Experimental: To determine DNA polymerase activity and thermostability of DNA polymerase polB in various media. Proteins in 25 μl of 20 mM Tris-HCl buffer (pH 8.0 at 25° C.) containing indicated concentrations of salts and betaine were incubated in PTC-150 Minicycler (MJ Research) at 95° C. or 100° C. 4 μl samples were removed at defined times of incubation and assayed for primer extension activity.
The stabilizing effect of betaine is diminished in the presence of organic solvents DMSO and formamide.

[3] = system: fluorescent duplex substrate containing a primer-template junction (PTJ); assay: Primer extension assay of PolB DNA polymerase activity; type: biochemical
[4] = system: fluorescent duplex substrate containing a primer-template junction (PTJ); assay: as above; type: biochemical; remark: listed apart in the source
Experimental: A primer extension assay was applied with a fluorescent duplex substrate containing a primer-template junction (PTJ). The duplex shown in FIG. 18 was prepared by annealing a 5′-end labeled with fluorescein 20-nt long primer with a 40-nt long template:
as §1, §2
Table 6 illustrates the dependency of initial rates of primer extension for Duplex 2 shown in FIG. 17 on temperature of the reaction. Initial rates of primer extension reaction were measured as described by Pavlov et al., 2002.

[5] = biological target: T1, M. kandleri AV19 PCNA (MK1030), DNA polymerase sliding clamp
T1 chain: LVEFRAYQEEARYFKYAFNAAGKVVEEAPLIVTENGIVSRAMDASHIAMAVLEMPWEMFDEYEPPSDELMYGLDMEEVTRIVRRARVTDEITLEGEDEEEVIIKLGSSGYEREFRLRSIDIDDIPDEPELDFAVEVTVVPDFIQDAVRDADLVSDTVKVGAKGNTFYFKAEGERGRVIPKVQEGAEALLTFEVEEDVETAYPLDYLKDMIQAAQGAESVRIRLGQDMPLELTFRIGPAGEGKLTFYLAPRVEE

[6] = system: fluorescent primer *FL-GTAATACGACTCACTATAGGG; assay: 3'→5' exonuclease activity of polB; type: biochemical
Experimental: as §3
was incubated with the enzyme at defined times. Then, the amounts of formed products were calculated, and the initial rates of hydrolysis were found, as in case of primer extension. It is interesting that polB was able to cleave off only 9 nucleotides of the primer, that is, the […] primer was the shortest substrate that polB could process.

Sequence of M.K. polB DNA polymerase (Q8TWJ5 entry or part of it): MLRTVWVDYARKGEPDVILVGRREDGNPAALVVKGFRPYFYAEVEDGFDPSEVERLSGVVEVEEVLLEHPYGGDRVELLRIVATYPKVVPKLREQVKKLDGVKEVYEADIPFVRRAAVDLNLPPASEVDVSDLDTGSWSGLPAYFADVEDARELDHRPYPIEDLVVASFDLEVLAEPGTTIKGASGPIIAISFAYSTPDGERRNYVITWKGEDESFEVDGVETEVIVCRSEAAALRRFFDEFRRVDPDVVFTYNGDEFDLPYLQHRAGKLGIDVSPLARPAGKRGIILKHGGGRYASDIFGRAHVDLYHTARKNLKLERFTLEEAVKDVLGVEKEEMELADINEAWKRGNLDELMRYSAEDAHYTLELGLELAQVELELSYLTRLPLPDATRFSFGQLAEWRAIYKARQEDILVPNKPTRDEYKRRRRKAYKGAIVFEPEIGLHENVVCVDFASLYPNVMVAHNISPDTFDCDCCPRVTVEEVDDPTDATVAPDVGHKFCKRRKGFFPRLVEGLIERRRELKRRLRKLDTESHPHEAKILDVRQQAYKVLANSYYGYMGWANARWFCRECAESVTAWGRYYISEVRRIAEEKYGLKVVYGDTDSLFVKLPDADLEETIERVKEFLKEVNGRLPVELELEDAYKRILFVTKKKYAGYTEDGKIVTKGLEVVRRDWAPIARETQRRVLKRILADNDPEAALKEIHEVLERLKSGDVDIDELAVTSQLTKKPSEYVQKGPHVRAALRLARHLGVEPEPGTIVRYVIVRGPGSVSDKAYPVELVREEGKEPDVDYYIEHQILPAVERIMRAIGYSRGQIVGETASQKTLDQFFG

Molecule: O=C(O)[C@@H](COP(=O)(O)O)OP(=O)(O)O [diphosphoglycerate]
- effect on polymerase activity of PolB (M.K. polB DNA polymerase): increase

Molecule: N[C@@H](CCC(=O)[O-])C(=O)[O-].[K+].[K+] [KGlu, potassium glutamate]
- effect on polymerase activity of PolB (M.K. polB DNA polymerase): increase
- increase of polymerase activity of polB (M.K. polB DNA polymerase; 0.8 M of the salt): about twenty-fold
- effect on 3'-5' exonuclease activity of Mka PolB [1]: inhibits

Molecule: Taq Polymerase: DNA polymerase from Thermus aquaticus [reference compound]
- increase of Ki on substituting KCl with KGlu ([2]; KGlu versus KCl): 4 fold
- NaCl concentration at which 20% inhibition of primer extension reaction occurs ([2]; NaCl): about 90 mM

Molecule: [Cl-].[Na+] [NaCl, sodium chloride]
- effect on 3'-5' exonuclease activity of Mka PolB [1]: stimulates

Molecule: N [NH4OH]
- IC50 (M.K. polB DNA polymerase; M.K. polB DNA polymerase activity, primer extension, read-out: IC50 (Inhibition constants in different media)): < 30 mM

Molecule: C[N+](C)(C)CC(=O)O [Betaine]
- effect on thermostability of polB DNA polymerase (polB DNA polymerase): stabilize specifically polB DNA polymerase

B1: M. kandleri AV19 DNA polymerase family B (Mka PolB) (MK1039) (protein)
chain: LLRTVWVDYARKGEPDVILVGRREDGNPAALVVKGFRPYFYAEVEDGFDPSEVERLSGVVEVEEVLLEHPYGGDRVELLRIVATYPKVVPKLREQVKKLDGVKEVYEADIPFVRRAAVDLNLPPASEVDVSDLDTGSWSGLPAYFADVEDARELDHRPYPIEDLVVASFDLEVLAEPGTTIKGASGPIIAISFAYSTPDGERRNYVITWKGEDESFEVDGVETEVIVCRSEAAALRRFFDEFRRVDPDVVFTYNGDEFDLPYLQHRAGKLGIDVSPLARPAGKRGIILKHGGGRYASDIFGRAHVDLYHTARKNLKLERFTLEEAVKDVLGVEKEEMELADINEAWKRGNLDELMRYSAEDAHYTLELGLELAQVELELSYLTRLPLPDATRFSFGQLAEWRAIYKARQEDILVPNKPTRDEYKRRRRKAYKGAIVFEPEIGLHENVVCVDFASLYPNVMVAHNISPDTFDCDCCPRVTVEEVDDPTDATVAPDVGHKFCKRRKGFFPRLVEGLIERRRELKRRLRKLDTESHPHEAKILDVRQQAYKVLANSYYGYMGWANARWFCRECAESVTAWGRYYISEVRRIAEEKYGLKVVYGDTDSLFVKLPDADLEETIERVKEFLKEVNGRLPVELELEDAYKRILFVTKKKYAGYTEDGKIVTKGLEVVRRDWAPIARETQRRVLKRILADNDPEAALKEIHEVLERLKSGDVDIDELAVTSQLTKKPSEYVQKGPHVRAALRLARHLGVEPEPGTIVRYVIVRGPGSVSDKAYPVELVREEGKEPDVDYYIEHQILPAVERIMRAIGYSRGQIVGETASQKTLDQFFG
- resistance to aggressive chemicals [3]: resistant to aggressive chemicals
- use of dUTP for primer extensions [4]: can use dUTP for primer extensions
- Initial Rate of Primer Extension ([4]; 0.5 M NaCl): 0.123 ± 0.003 µM/min
- Initial Rate of Primer Extension ([4]; 0.5 M NaCl + PCNA): 0.214 ± 0.014 µM/min
- Initial Rate of Primer Extension ([4]; 1 M DPG): 2.17 ± 0.16 µM/min
- Initial Rate of Primer Extension ([4]; 1 M KGlu): 2.74 ± 0.18 µM/min
- Initial Rate of Primer Extension ([4]; 1 M KGlu, dUTP): 1.82 ± 0.09 µM/min
- temperature up to which primers are extended ([4]; Duplex 2 (FIG. 17)): up to 105 °C
- Initial Rate of Primer Extension ([4]; Duplex 2 (FIG. 17), 50 °C): 1.01 ± 0.06 µM/min
- Initial Rate of Primer Extension ([4]; Duplex 2 (FIG. 17), 55 °C): 1.08 ± 0.09 µM/min
- Initial Rate of Primer Extension ([4]; Duplex 2 (FIG. 17), 60 °C): 1.12 ± 0.08 µM/min
- Initial Rate of Primer Extension ([4]; Duplex 2 (FIG. 17), 65 °C): 1.23 ± 0.05 µM/min
- Initial Rate of Primer Extension ([4]; Duplex 2 (FIG. 17), 70 °C): 1.01 ± 0.07 µM/min
- Initial Rate of Primer Extension ([4]; Duplex 2 (FIG. 17), 75 °C): 0.95 ± 0.07 µM/min
- Initial Rate of Primer Extension ([4]; Duplex 2 (FIG. 17), 80 °C): 0.92 ± 0.07 µM/min
- Initial Rate of Primer Extension ([4]; Duplex 2 (FIG. 17), 85 °C): 0.94 ± 0.07 µM/min
- Initial Rate of Primer Extension ([4]; Duplex 2 (FIG. 17), 90 °C): 0.71 ± 0.05 µM/min
- Initial Rate of Primer Extension ([4]; Duplex 2 (FIG. 17), 95 °C): 0.62 ± 0.04 µM/min
- Initial Rate of Primer Extension ([4]; Duplex 2 (FIG. 17), 100 °C): 0.62 ± 0.06 µM/min
- Initial Rate of Primer Extension ([4]; Duplex 2 (FIG. 17), 105 °C): 0.55 ± 0.09 µM/min
- hydrolysis of the primer annealed to the duplex (3'-5' exonuclease activity of polB) [5]: suppression of hydrolysis of the primer annealed to the duplex
- nucleotides of the primer cleaved off [6]: 9 nucleotides
- shortest substrate that polB could process [6]: 13 nt

B2: Pfu polymerase: whole size Pfu polymerase (protein, UniProt P61875 1-775, looked up)
chain: MILDVDYITEEGKPVIRLFKKENGKFKIEHDRTFRPYIYALLRDDSKIEEVKKITGERHGKIVRIVDVEKVEKKFLGKPITVWKLYLEHPQDVPTIREKVREHPAVVDIFEYDIPFAKRYLIDKGLIPMEGEEELKILAFDIETLYHEGEEFGKGPIIMISYADENEAKVITWKNIDLPYVEVVSSEREMIKRFLRIIREKDPDIIVTYNGDSFDFPYLAKRAEKLGIKLTIGRDGSEPKMQRIGDMTAVEVKGRIHFDLYHVITRTINLPTYTLEAVYEAIFGKPKEKVYADEIAKAWESGENLERVAKYSMEDAKATYELGKEFLPMEIQLSRLVGQPLWDVSRSSTGNLVEWFLLRKAYERNEVAPNKPSEEEYQRRLRESYTGGFVKEPEKGLWENIVYLDFRALYPSIIITHNVSPDTLNLEGCKNYDIAPQVGHKFCKDIPGFIPSLLGHLLEERQKIKTKMKETQDPIEKILLDYRQKAIKLLANSFYGYYGYAKARWYCKECAESVTAWGRKYIELVWKELEEKFGFKVLYIDTDGLYATIPGGESEEIKKKALEFVKYINSKLPGLLELEYEGFYKRGFFVTKKRYAVIDEEGKVITRGLEIVRRDWSEIAKETQARVLETILKHGDVEEAVRIVKEVIQKLANYEIPPEKLAIYEQITRPLHEYKAIGPHVAVAKKLAAKGVKIKPGMVIGYIVLRGDGPISNRAILAEEYDPKKHKYDAEYYIENQVLPAVLRILEGFGYRKEDLRYQKTRQVGLTSWLNIKKS
modifications: full-length
- Ki ([2]; inhibition by KCl, read-out: Ki (KCl), apparent inhibition constant): 42.6 ± 1 mM
- Ki ([2]; inhibition by NaCl, nonlinear regression Eq. 2, read-out: Ki (NaCl), apparent inhibition constant): 51.5 ± 1 mM
